Assay results from the supplement of paper PMC9233669.
Variants at the floor of the assay were thinned out.

Legend:
biotinyl-Phe-oxazolone = assay: self-aminoacylation, catalytic enhancement (BFO) (fold over background); higher = more active; k-Seq, kA / k0A0; sequences stand for … in GGGAAUGGAUCCACAUCUACGAAUUC…UUCACUGCAGACUUGACGAAGCUG
How it was run: (§1)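 Mutagenized RNA pools (0.43 μM; 21-nt variable region) were treated with 2–1250 μM of each biotinyl-aminoacyl-oxazolone. Conditions were 50 μL HEPES/NaCl/KCl/MgCl2/CaCl2 buffer, 5% acetonitrile, pH 6.9–7.0, room temperature, 90 minutes. Catalytic enhancement, the median kA relative to the uncatalyzed rate, was derived from streptavidin capture, qPCR and Illumina sequencing.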

biotinyl-Trp-oxazolone = assay: self-aminoacylation, catalytic enhancement (BWO) (fold over background); higher = more active; k-Seq, kA / k0A0; sequences stand for … in GGGAAUGGAUCCACAUCUACGAAUUC…UUCACUGCAGACUUGACGAAGCUG
How it was run: as §1

biotinyl-Ile-oxazolone = assay: self-aminoacylation, catalytic enhancement (BIO) (fold over background); higher = more active; k-Seq, kA / k0A0; sequences stand for … in GGGAAUGGAUCCACAUCUACGAAUUC…UUCACUGCAGACUUGACGAAGCUG
How it was run: as §1

biotinyl-Val-oxazolone = assay: self-aminoacylation, catalytic enhancement (BVO) (fold over background); higher = more active; k-Seq, kA / k0A0; sequences stand for … in GGGAAUGGAUCCACAUCUACGAAUUC…UUCACUGCAGACUUGACGAAGCUG
How it was run: as §1

biotinyl-Leu-oxazolone = assay: self-aminoacylation, catalytic enhancement (BLO) (fold over background); higher = more active; k-Seq, kA / k0A0; sequences stand for … in GGGAAUGGAUCCACAUCUACGAAUUC…UUCACUGCAGACUUGACGAAGCUG
How it was run: as §1

biotinyl-Met-oxazolone = assay: self-aminoacylation, catalytic enhancement (BMO) (fold over background); higher = more active; k-Seq, kA / k0A0; sequences stand for … in GGGAAUGGAUCCACAUCUACGAAUUC…UUCACUGCAGACUUGACGAAGCUG
How it was run: as §1

| Sequence | self-aminoacylation (biotinyl-Phe-oxazolone) | self-aminoacylation (biotinyl-Trp-oxazolone) | self-aminoacylation (biotinyl-Ile-oxazolone) | self-aminoacylation (biotinyl-Val-oxazolone) | self-aminoacylation (biotinyl-Leu-oxazolone) | self-aminoacylation (biotinyl-Met-oxazolone) |
| --- | --- | --- | --- | --- | --- | --- |
| AUUACCCUGGUUAUCGUGUGA [Fam2.1 aminoacylation ribozyme variant] | 15 | 2.76 | 1.27 | 1.49 | 2.3 | 2.4 |
| AAGUUUCCUAAUAGUCGCGAG [Fam3.1 aminoacylation ribozyme variant] | 3.66 | 2.04 | 2.47 | 2.48 | 2.26 | 2.04 |
| AAGAUUGCAAAUAGUCGCAAG [Fam3.1 aminoacylation ribozyme variant] | 1.38 | 2.48 | 1.43 | 1.29 | 1.58 | 1.27 |
| CCACACUUCAAGCAAUCGGUG [Fam1B.1 aminoacylation ribozyme variant] | 17.1 | 5.45 | 3.68 | 3.68 | 7.2 | 5.19 |
| AAGUUUGCUACUAGUCGCAAG [Fam3.1 aminoacylation ribozyme variant] | 1.13 | 0.775 | 0.824 | 0.838 | 0.766 | 0.802 |
| CUACUUCAAACAAACGGUCUU [Fam1A.1 aminoacylation ribozyme variant] | 0.824 | 0.74 | 0.904 | 0.901 | 0.879 | 0.982 |
| CCAGACUCCAAGCAAUCGGUC [Fam1B.1 aminoacylation ribozyme variant] | 2.16 | 1.48 | 1.22 | 1.23 | 1.23 | 1.17 |
| AUUACCCGGGUCAUCUAGUGA [Fam2.1 aminoacylation ribozyme variant] | 70.8 | 11.2 | 4.46 | 5.08 | 11 | 9.33 |
| AAGUUUACUAAGAGUCGCAAG [Fam3.1 aminoacylation ribozyme variant] | 1.93 | 1.69 | 1.47 | 1.36 | 1.36 | 1.37 |
| CUUACCCUGGUCAUCGUGUGA [Fam2.1 aminoacylation ribozyme variant] | 11.1 | 2.98 | 1.79 | 2.11 | 2.87 | 2.8 |
| AUUCACCAAGUUCAUCGGGUG [Fam2.2 aminoacylation ribozyme variant] | 19.8 | 4.14 | 3.06 | 2.89 | 4.31 | 3.58 |
| AAGAUAGCUAAUAGUCGCAAG [Fam3.1 aminoacylation ribozyme variant] | 2.4 | 1.34 | 1.63 | 1.34 | 1.82 | 1.57 |
| AUGUUUGCUAAUAGUCGCUAG [Fam3.1 aminoacylation ribozyme variant] | 1.82 | 1.28 | 1.19 | 1.08 | 1.06 | 1.06 |
| AUCACCCUGAUCAUCGAGUGA [Fam2.1 aminoacylation ribozyme variant] | 62.3 | 10.9 | 4.86 | 4.32 | 10.2 | 10.8 |
| CCACUCCAAACAAUCGGUCUG [Fam1A.1 aminoacylation ribozyme variant] | 4.18 | 3.48 | 1.11 | 1.22 | 1.09 | 1.13 |
| CUACCUCAAACAAUAGGUCUG [Fam1A.1 aminoacylation ribozyme variant] | 1.08 | 0.691 | 0.959 | 1 | 0.846 | 0.838 |
| AAGUUUGCCAAUAUUCGCAAG [Fam3.1 aminoacylation ribozyme variant] | 3.77 | 1.45 | 1.51 | 1.07 | 1.07 | 1.35 |
| AUUCAACUAUGUCAUCGGGUG [Fam2.2 aminoacylation ribozyme variant] | 33.1 | 4.57 | 3.08 | 2.45 | 6.15 | 4.78 |
| CCACACUUCAAGCCAUCUGUC [Fam1B.1 aminoacylation ribozyme variant] | 0.711 | 0.498 | 0.493 | 0.72 | 0.401 | 0.542 |
| AUUUCCCUGGUUAUCGAGUGA [Fam2.1 aminoacylation ribozyme variant] | 58.2 | 10.9 | 4.12 | 4.39 | 8.65 | 9.01 |
| CUAGUUCAAACAACCGGUCUG [Fam1A.1 aminoacylation ribozyme variant] | 0.987 | 0.982 | 1.23 | 1.2 | 0.965 | 1.05 |
| AUUACCCCGGUCAUUGAGUGA [Fam2.1 aminoacylation ribozyme variant] | 43.9 | 8.47 | 3.22 | 3.79 | 6.53 | 7.29 |
| AUUACGCUGGUCAUCGAGGGA [Fam2.1 aminoacylation ribozyme variant] | 1.38 | 2.25 | 1.61 | 2.03 | 1.98 | 1.46 |
| AUUACCCUGGUCAUGGAGUGU [Fam2.1 aminoacylation ribozyme variant] | 3.83 | 2.57 | 1.72 | 1.98 | 2.73 | 2.46 |
| CCUCACUUCAAGCAACCGGUC [Fam1B.1 aminoacylation ribozyme variant] | 1.67 | 1.29 | 0.978 | 0.834 | 0.806 | 0.857 |
